Target: the molecule itself
Assay: SEC-MALS

Row | Protein | binding result | stoichiometry N
1 | FOXP3 forkhead domain F373A (IPEX mutation) (domain or fragment, human) MRPPFTYATLIRWAILEAPEKQRTLNEIYHWFTRMFAAFRNHPATWKNAIRHNLSLHKCFVRVESEKGAVWTVDELEFRKKR | binds | –
2 | FOXP3 forkhead domain F371C (IPEX mutation) (domain or fragment, human) MRPPFTYATLIRWAILEAPEKQRTLNEIYHWFTRMCAFFRNHPATWKNAIRHNLSLHKCFVRVESEKGAVWTVDELEFRKKR | – | 2
3 | FOXP3 forkhead domain double mutant (W348Q and M370T) (domain or fragment, human) MRPPFTYATLIRQAILEAPEKQRTLNEIYHWFTRTFAFFRNHPATWKNAIRHNLSLHKCFVRVESEKGAVWTVDELEFRKKR | binds | –

From publication PMC3085397 (Immunity, 2011)
